# Measurements as given in publication PMC9482650, “Quantitative fragmentomics allow affinity mapping of interactomes” (Nature Communications, 2022).
# T1: MPDZ_10, O75970
# T1 sequence (O75970 1624-1722, limits assumed, looked up): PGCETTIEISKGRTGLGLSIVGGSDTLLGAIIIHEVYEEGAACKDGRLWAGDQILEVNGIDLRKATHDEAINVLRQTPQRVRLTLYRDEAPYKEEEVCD
# T2: APBA2_2, Q99767
# T2 sequence (Q99767 654-744, limits assumed, looked up): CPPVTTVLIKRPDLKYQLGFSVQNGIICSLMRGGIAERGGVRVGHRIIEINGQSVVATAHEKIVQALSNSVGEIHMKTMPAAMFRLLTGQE
# T3: TX1BP3, O14907
# T3 sequence (O14907 10-122, limits assumed, looked up): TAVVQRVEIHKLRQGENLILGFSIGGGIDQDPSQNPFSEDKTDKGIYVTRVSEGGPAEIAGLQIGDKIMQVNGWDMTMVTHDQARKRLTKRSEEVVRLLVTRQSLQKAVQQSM
# T4: LNX2_2, Q8N448
# T4 sequence (Q8N448 334-432, limits assumed, looked up): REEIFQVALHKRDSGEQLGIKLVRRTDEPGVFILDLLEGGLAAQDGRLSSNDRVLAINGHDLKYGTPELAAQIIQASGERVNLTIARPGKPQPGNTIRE
# T5: PCLO, Q9Y6V0
# T5 sequence (Q9Y6V0 4491-4600, limits assumed, looked up): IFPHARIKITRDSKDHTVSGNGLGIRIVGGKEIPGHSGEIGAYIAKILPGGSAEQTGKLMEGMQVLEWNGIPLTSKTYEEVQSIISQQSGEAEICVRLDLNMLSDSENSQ
# T6: GRIP1_7, Q9Y3R0
# T6 sequence (Q9Y3R0 999-1096, limits assumed, looked up): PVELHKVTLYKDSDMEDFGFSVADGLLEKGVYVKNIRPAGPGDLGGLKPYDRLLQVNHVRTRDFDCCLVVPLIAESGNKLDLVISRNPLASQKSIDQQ
# T7: RADIL, Q96JH8
# T7 sequence (Q96JH8 971-1071, limits assumed, looked up): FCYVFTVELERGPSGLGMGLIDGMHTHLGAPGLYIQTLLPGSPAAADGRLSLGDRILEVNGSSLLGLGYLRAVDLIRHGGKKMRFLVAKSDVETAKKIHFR
# T8: LIN7A, O14910
# T8 sequence (O14910 103-200, limits assumed, looked up): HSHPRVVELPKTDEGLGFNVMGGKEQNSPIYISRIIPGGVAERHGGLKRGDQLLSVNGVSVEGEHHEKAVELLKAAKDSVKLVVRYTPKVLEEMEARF
# T9: NHERF3_4, Q5T2W1
# T9 sequence (Q5T2W1 373-468, limits assumed, looked up): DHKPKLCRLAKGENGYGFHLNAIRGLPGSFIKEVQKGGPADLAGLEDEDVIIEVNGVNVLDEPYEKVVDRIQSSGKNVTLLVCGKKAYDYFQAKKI
# T10: MPP2, Q14168
# T10 sequence (Q14168 180-250, limits assumed, looked up): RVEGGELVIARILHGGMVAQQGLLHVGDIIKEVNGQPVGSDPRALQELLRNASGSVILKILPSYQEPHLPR
# T11: DFNB31_2, Q9P202
# T11 sequence (Q9P202 274-371, limits assumed, looked up): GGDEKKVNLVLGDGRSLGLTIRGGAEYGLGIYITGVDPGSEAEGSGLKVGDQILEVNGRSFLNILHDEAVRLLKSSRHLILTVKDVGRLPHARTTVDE
# T12: HTRA4, P83105
# T12 sequence (P83105 378-476, limits assumed, looked up): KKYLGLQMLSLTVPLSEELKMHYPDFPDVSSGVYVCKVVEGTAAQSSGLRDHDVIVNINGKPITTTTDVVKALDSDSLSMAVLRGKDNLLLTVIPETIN
# Target: T1, MPDZ_10, O75970
# Experiment: holdup assay
# Design: key: below the threshold = too weak to quantify, mostly under pKd 3.1 to 4
# Conditions: plain residues with an end cap or a label only (N-terminal biotin on a linker: ado-ado)
row,pKd,Binder
1,below the threshold,"PSDSVGKDVF [EGLN1, Q9GZT9]"
2,below the threshold,"SKQFDKNAYV [CLDN10, P78369]"

# Target: MAGI1_1, Q96QZ7
# Experiment: holdup assay
# Design: key: below the threshold = too weak to quantify, mostly under pKd 3.1 to 4
# Conditions: plain residues with an end cap or a label only (N-terminal biotin on a linker: ado-ado)
# Sequence of MAGI1_1, Q96QZ7 (Q96QZ7 1-106): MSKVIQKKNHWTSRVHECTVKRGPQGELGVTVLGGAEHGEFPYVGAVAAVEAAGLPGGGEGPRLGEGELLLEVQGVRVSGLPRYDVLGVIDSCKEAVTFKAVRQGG
row,pKd,Binder
1,below the threshold,"PSDSVGKDVF [EGLN1, Q9GZT9]"
2,below the threshold,"SKQFDKNAYV [CLDN10, P78369]"

# Target: FRMPD2_2, Q68DX3
# Experiment: holdup assay
# Design: key: below the threshold = too weak to quantify, mostly under pKd 3.1 to 4
# Conditions: plain residues with an end cap or a label only (N-terminal biotin on a linker: ado-ado)
# Sequence of FRMPD2_2, Q68DX3 (Q68DX3 944-1038): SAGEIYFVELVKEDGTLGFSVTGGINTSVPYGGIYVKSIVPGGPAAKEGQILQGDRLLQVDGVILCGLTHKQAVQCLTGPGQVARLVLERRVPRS
row,pKd,Binder
1,below the threshold,"PSDSVGKDVF [EGLN1, Q9GZT9]"
2,below the threshold,"SKQFDKNAYV [CLDN10, P78369]"

# Target: T2, APBA2_2, Q99767
# Experiment: holdup assay
# Design: key: below the threshold = too weak to quantify, mostly under pKd 3.1 to 4
# Conditions: plain residues with an end cap or a label only (N-terminal biotin on a linker: ado-ado)
row,pKd,Binder
1,below the threshold,"PSDSVGKDVF [EGLN1, Q9GZT9]"
2,below the threshold,"SKQFDKNAYV [CLDN10, P78369]"

# Target: T3, TX1BP3, O14907
# Experiment: holdup assay
# Design: key: below the threshold = too weak to quantify, mostly under pKd 3.1 to 4
# Conditions: plain residues with an end cap or a label only (N-terminal biotin on a linker: ado-ado)
row,pKd,Binder
1,below the threshold,"PSDSVGKDVF [EGLN1, Q9GZT9]"
2,below the threshold,"SKQFDKNAYV [CLDN10, P78369]"

# Target: Inadl_9, Q8NI35
# Experiment: holdup assay
# Design: key: below the threshold = too weak to quantify, mostly under pKd 3.1 to 4
# Conditions: plain residues with an end cap or a label only (N-terminal biotin on a linker: ado-ado)
# Sequence of Inadl_9, Q8NI35 (Q8NI35 1530-1615): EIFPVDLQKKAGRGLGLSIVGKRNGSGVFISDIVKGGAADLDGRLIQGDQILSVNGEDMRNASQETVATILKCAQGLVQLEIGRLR
row,pKd,Binder
1,below the threshold,"PSDSVGKDVF [EGLN1, Q9GZT9]"
2,below the threshold,"SKQFDKNAYV [CLDN10, P78369]"

# Target: T4, LNX2_2, Q8N448
# Experiment: holdup assay
# Design: key: below the threshold = too weak to quantify, mostly under pKd 3.1 to 4
# Conditions: plain residues with an end cap or a label only (N-terminal biotin on a linker: ado-ado)
row,pKd,Binder
1,below the threshold,"PSDSVGKDVF [EGLN1, Q9GZT9]"
2,4.1,"SKQFDKNAYV [CLDN10, P78369]"

# Target: T5, PCLO, Q9Y6V0
# Experiment: holdup assay
# Design: key: below the threshold = too weak to quantify, mostly under pKd 3.1 to 4
# Conditions: plain residues with an end cap or a label only (N-terminal biotin on a linker: ado-ado)
row,pKd,Binder
1,below the threshold,"PSDSVGKDVF [EGLN1, Q9GZT9]"
2,below the threshold,"SKQFDKNAYV [CLDN10, P78369]"

# Target: T6, GRIP1_7, Q9Y3R0
# Experiment: holdup assay
# Design: key: below the threshold = too weak to quantify, mostly under pKd 3.1 to 4
# Conditions: plain residues with an end cap or a label only (N-terminal biotin on a linker: ado-ado)
row,pKd,Binder
1,below the threshold,"PSDSVGKDVF [EGLN1, Q9GZT9]"
2,below the threshold,"SKQFDKNAYV [CLDN10, P78369]"

# Target: T7, RADIL, Q96JH8
# Experiment: holdup assay
# Design: key: below the threshold = too weak to quantify, mostly under pKd 3.1 to 4
# Conditions: plain residues with an end cap or a label only (N-terminal biotin on a linker: ado-ado)
row,pKd,Binder
1,below the threshold,"PSDSVGKDVF [EGLN1, Q9GZT9]"
2,4.18,"SKQFDKNAYV [CLDN10, P78369]"

# Target: Inadl_5, Q8NI35
# Experiment: holdup assay
# Design: key: below the threshold = too weak to quantify, mostly under pKd 3.1 to 4
# Conditions: plain residues with an end cap or a label only (N-terminal biotin on a linker: ado-ado)
# Sequence of Inadl_5, Q8NI35 (Q8NI35 673-780): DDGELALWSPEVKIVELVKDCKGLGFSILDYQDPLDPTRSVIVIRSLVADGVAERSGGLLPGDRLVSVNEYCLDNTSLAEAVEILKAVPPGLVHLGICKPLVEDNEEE
row,pKd,Binder
1,below the threshold,"PSDSVGKDVF [EGLN1, Q9GZT9]"
2,3.52,"SKQFDKNAYV [CLDN10, P78369]"

# Target: T8, LIN7A, O14910
# Experiment: holdup assay
# Design: key: below the threshold = too weak to quantify, mostly under pKd 3.1 to 4
# Conditions: plain residues with an end cap or a label only (N-terminal biotin on a linker: ado-ado)
row,pKd,Binder
1,below the threshold,"PSDSVGKDVF [EGLN1, Q9GZT9]"
2,below the threshold,"SKQFDKNAYV [CLDN10, P78369]"

# Target: FRMPD2_3, Q68DX3
# Experiment: holdup assay
# Design: key: below the threshold = too weak to quantify, mostly under pKd 3.1 to 4
# Conditions: plain residues with an end cap or a label only (N-terminal biotin on a linker: ado-ado)
# Sequence of FRMPD2_3, Q68DX3 (Q68DX3 1073-1166): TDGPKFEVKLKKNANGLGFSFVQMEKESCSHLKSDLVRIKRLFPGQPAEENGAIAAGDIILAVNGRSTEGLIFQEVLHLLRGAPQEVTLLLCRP
row,pKd,Binder
1,below the threshold,"PSDSVGKDVF [EGLN1, Q9GZT9]"
2,below the threshold,"SKQFDKNAYV [CLDN10, P78369]"

# Target: T9, NHERF3_4, Q5T2W1
# Experiment: holdup assay
# Design: key: below the threshold = too weak to quantify, mostly under pKd 3.1 to 4
# Conditions: plain residues with an end cap or a label only (N-terminal biotin on a linker: ado-ado)
row,pKd,Binder
1,below the threshold,"PSDSVGKDVF [EGLN1, Q9GZT9]"
2,below the threshold,"SKQFDKNAYV [CLDN10, P78369]"

# Target: IL16_3, Q14005
# Experiment: holdup assay
# Design: key: below the threshold = too weak to quantify, mostly under pKd 3.1 to 4
# Conditions: plain residues with an end cap or a label only (N-terminal biotin on a linker: ado-ado)
# Sequence of IL16_3, Q14005 (Q14005 1107-1207): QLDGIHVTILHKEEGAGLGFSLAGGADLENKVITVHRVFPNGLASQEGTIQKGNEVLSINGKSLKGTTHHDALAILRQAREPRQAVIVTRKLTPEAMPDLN
row,pKd,Binder
1,below the threshold,"PSDSVGKDVF [EGLN1, Q9GZT9]"
2,below the threshold,"SKQFDKNAYV [CLDN10, P78369]"

# Target: T10, MPP2, Q14168
# Experiment: holdup assay
# Design: key: below the threshold = too weak to quantify, mostly under pKd 3.1 to 4
# Conditions: plain residues with an end cap or a label only (N-terminal biotin on a linker: ado-ado)
row,pKd,Binder
1,below the threshold,"PSDSVGKDVF [EGLN1, Q9GZT9]"
2,below the threshold,"SKQFDKNAYV [CLDN10, P78369]"

# Target: TJP2_1, Q9UDY2
# Experiment: holdup assay
# Design: key: below the threshold = too weak to quantify, mostly under pKd 3.1 to 4
# Conditions: plain residues with an end cap or a label only (N-terminal biotin on a linker: ado-ado)
# Sequence of TJP2_1, Q9UDY2 (Q9UDY2 24-128): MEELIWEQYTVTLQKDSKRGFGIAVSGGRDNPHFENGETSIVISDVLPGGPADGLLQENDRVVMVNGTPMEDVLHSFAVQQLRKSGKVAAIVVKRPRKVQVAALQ
row,pKd,Binder
1,below the threshold,"PSDSVGKDVF [EGLN1, Q9GZT9]"
2,4.19,"SKQFDKNAYV [CLDN10, P78369]"

# Target: T11, DFNB31_2, Q9P202
# Experiment: holdup assay
# Design: key: below the threshold = too weak to quantify, mostly under pKd 3.1 to 4
# Conditions: plain residues with an end cap or a label only (N-terminal biotin on a linker: ado-ado)
row,pKd,Binder
1,below the threshold,"PSDSVGKDVF [EGLN1, Q9GZT9]"
2,below the threshold,"SKQFDKNAYV [CLDN10, P78369]"

# Target: T12, HTRA4, P83105
# Experiment: holdup assay
# Design: key: below the threshold = too weak to quantify, mostly under pKd 3.1 to 4
# Conditions: plain residues with an end cap or a label only (N-terminal biotin on a linker: ado-ado)
row,pKd,Binder
1,below the threshold,"PSDSVGKDVF [EGLN1, Q9GZT9]"
2,below the threshold,"SKQFDKNAYV [CLDN10, P78369]"

# Target: Inadl_8, Q8NI35
# Experiment: holdup assay
# Design: key: below the threshold = too weak to quantify, mostly under pKd 3.1 to 4
# Conditions: plain residues with an end cap or a label only (N-terminal biotin on a linker: ado-ado)
# Sequence of Inadl_8, Q8NI35 (Q8NI35 1425-1530): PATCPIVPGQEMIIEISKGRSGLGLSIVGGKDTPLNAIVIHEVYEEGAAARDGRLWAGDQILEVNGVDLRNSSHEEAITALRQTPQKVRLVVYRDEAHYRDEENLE
row,pKd,Binder
1,below the threshold,"PSDSVGKDVF [EGLN1, Q9GZT9]"
2,3.5,"SKQFDKNAYV [CLDN10, P78369]"

# Target: TJP1_2, Q07157
# Experiment: holdup assay
# Design: key: below the threshold = too weak to quantify, mostly under pKd 3.1 to 4
# Conditions: plain residues with an end cap or a label only (N-terminal biotin on a linker: ado-ado)
# Sequence of TJP1_2, Q07157 (Q07157 181-274): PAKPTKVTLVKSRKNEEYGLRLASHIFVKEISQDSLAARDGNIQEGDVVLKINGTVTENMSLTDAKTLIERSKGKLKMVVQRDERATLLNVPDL
row,pKd,Binder
1,below the threshold,"PSDSVGKDVF [EGLN1, Q9GZT9]"
2,3.61,"SKQFDKNAYV [CLDN10, P78369]"

# Target: Inadl_10, Q8NI35
# Experiment: holdup assay
# Design: key: below the threshold = too weak to quantify, mostly under pKd 3.1 to 4
# Conditions: plain residues with an end cap or a label only (N-terminal biotin on a linker: ado-ado)
# Sequence of Inadl_10, Q8NI35 (Q8NI35 1673-1763): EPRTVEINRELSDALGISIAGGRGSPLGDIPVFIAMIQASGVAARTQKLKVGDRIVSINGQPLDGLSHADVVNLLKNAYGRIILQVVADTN
row,pKd,Binder
1,below the threshold,"PSDSVGKDVF [EGLN1, Q9GZT9]"
2,below the threshold,"SKQFDKNAYV [CLDN10, P78369]"

# Target: MAGI3_2, Q5TCQ9
# Experiment: holdup assay
# Design: key: below the threshold = too weak to quantify, mostly under pKd 3.1 to 4
# Conditions: plain residues with an end cap or a label only (N-terminal biotin on a linker: ado-ado)
# Sequence of MAGI3_2, Q5TCQ9 (Q5TCQ9 398-503): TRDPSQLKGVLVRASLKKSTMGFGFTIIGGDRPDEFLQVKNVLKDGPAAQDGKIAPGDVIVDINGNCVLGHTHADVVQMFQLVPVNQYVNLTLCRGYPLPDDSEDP
row,pKd,Binder
1,below the threshold,"PSDSVGKDVF [EGLN1, Q9GZT9]"
2,3.67,"SKQFDKNAYV [CLDN10, P78369]"

# Target: ARHGEF12, Q9NZN5-2
# Experiment: holdup assay
# Design: key: below the threshold = too weak to quantify, mostly under pKd 3.1 to 4
# Conditions: plain residues with an end cap or a label only (N-terminal biotin on a linker: ado-ado)
# Sequence of ARHGEF12, Q9NZN5-2 (Q9NZN5 other isoform, or with tags, fused parts or gaps): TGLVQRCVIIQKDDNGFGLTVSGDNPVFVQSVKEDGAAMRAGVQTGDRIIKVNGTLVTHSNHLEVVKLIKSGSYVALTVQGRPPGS
row,pKd,Binder
1,below the threshold,"PSDSVGKDVF [EGLN1, Q9GZT9]"
2,3.66,"SKQFDKNAYV [CLDN10, P78369]"

# Target: MAGI1_2, Q96QZ7
# Experiment: holdup assay
# Design: key: below the threshold = too weak to quantify, mostly under pKd 3.1 to 4
# Conditions: plain residues with an end cap or a label only (N-terminal biotin on a linker: ado-ado)
# Sequence of MAGI1_2, Q96QZ7 (Q96QZ7 456-580): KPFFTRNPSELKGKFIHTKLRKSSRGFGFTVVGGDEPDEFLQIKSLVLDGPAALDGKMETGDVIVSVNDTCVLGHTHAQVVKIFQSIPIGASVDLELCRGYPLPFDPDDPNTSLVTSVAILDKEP
row,pKd,Binder
1,below the threshold,"PSDSVGKDVF [EGLN1, Q9GZT9]"
2,below the threshold,"SKQFDKNAYV [CLDN10, P78369]"

# Target: LNX1_3, Q8TBB1
# Experiment: holdup assay
# Design: key: below the threshold = too weak to quantify, mostly under pKd 3.1 to 4
# Conditions: plain residues with an end cap or a label only (N-terminal biotin on a linker: ado-ado)
# Sequence of LNX1_3, Q8TBB1 (Q8TBB1 500-596): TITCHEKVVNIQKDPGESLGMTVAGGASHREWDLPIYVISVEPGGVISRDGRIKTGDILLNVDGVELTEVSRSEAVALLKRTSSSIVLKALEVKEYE
row,pKd,Binder
1,below the threshold,"PSDSVGKDVF [EGLN1, Q9GZT9]"
2,below the threshold,"SKQFDKNAYV [CLDN10, P78369]"
